Six sequences from the supplement of paper PMC5998384 can be followed below.

Data set [1] deals with HeLa Kyoto. Kind of data set: solubility change mitosis vs G1/S (difference of NP-40 vs SDS log2 ratios) (log2 ratio difference); higher = more soluble in mitosis.
In data set [2] the test system is HeLa Kyoto. Kind of data set: melting temperature (median over replicates), in situ; higher = more thermally stable.
Data set [3] concerns HeLa Kyoto. Kind of data set: thermal stability score vs G1/S (z-score of summed log2 fold changes over temperatures); higher = more thermally stable than in G1/S.
For data set [4], the system named is HeLa Kyoto. As to the kind of experiment: solubility in G1/S (NP-40 vs SDS abundance) (log2 ratio); higher = more soluble. Conditions: cell cycle stage: G1/S.
The mark [5] stands for this setting: cell cycle stage: early G1 (4.5 h after nocodazole release).
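Throughout, for melting temperature (median over replicates), in situ: HeLa Kyoto cells synchronized by double thymidine or nocodazole block, proteins quantified by TMT10plex mass spectrometry, three independent biological replicates.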
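Throughout, for solubility change mitosis vs G1/S (difference of NP-40 vs SDS log2 ratios): synchronized HeLa Kyoto cells (double thymidine block for G1/S, nocodazole release for mitosis), protein amounts in NP-40 versus SDS lysates quantified by mass spectrometry, three biological replicates.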
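Throughout, for solubility in G1/S (NP-40 vs SDS abundance): HeLa Kyoto cells arrested at G1/S by double thymidine block, proteins quantified by TMT10plex mass spectrometry in mild NP-40 versus SDS extracts, three biological replicates.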
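Throughout, for thermal stability score vs G1/S (z-score of summed log2 fold changes over temperatures): synchronized HeLa Kyoto cells, proteins quantified by TMT10plex mass spectrometry, three biological replicates, mitosis taken 0.5 h after nocodazole release, G1/S directly after double thymidine block.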

On to “MAQRKNAKSSGNSSSSGSGSGSTSAGSSSPGARRETKHGGHKNGRKGGLSGTSFFTWFMVIALLGVWTSVAVVWFDLVDYEEVLGKLGIYDADGDGDFDVDDAKVLLGLKERSTSEPAVPPEEAEPHTEPEEQVPVEAEPQNIEDEAKEQIQSLLHEMVHAEHVEGEDLQQEDGPTGEPQQEDDEFLMATDVDDRFETLEPEVSHEETEHSYHVEETVSQDCNQDMEEMMSEQENPDSSEPVVEDERLHHDTDDVTYQVYEEQAVYEPLENEGIEITEVTAPPEDNPVEDSQVIVEEVSIFPVEEQQEVPPETNRKTDDPEQKAKVKKKKPKLLNKFDKTIKAELDAAEKLRKRGKIEEAVNAFKELVRKYPQSPRARYGKAQCEDDLAEKRRSNEVLRGAIETYQEVASLPDVPADLLKLSLKRRSDRQQFLGHMRGSLLTLQRLVQLFPNDTSLKNDLGVGYLLIGDNDNAKKVYEEVLSVTPNDGFAKVHYGFILKAQNKIAESIPYLKEGIESGDPGTDDGRFYFHLGDAMQRVGNKEAYKWYELGHKRGHFASVWQRSLYNVNGLKAQPWWTPKETGYTELVKSLERNWKLIRDEGLAVMDKAKGLFLPEDENLREKGDWSQFTLWQQGRRNENACKGAPKTCTLLEKFPETTGCRRGQIKYSIMHPGTHVWPHTGPTNCRLRMHLGLVIPKEGCKIRCANETKTWEEGKVLIFDDSFEHEVWQDASSFRLIFIVDVWHPELTPQQRRSLPAI [ASPH]”, for which, in data set [1], the “solubility change mitosis (log2)” value was 0.0282. For the same sequence, the values for the melting temperature in data set [2] (cell cycle stage: G1/S) and in data set [2] (cell cycle stage: mitosis) were 54.2 °C and 53.5 °C, respectively. The thermal stability score is 1.63 in data set [3] (setting [5]) and 2.03 in data set [3] (cell cycle stage: mitosis). Also, in data set [4], the “solubility in G1/S (log2)” value was -0.00862.
Consider “MAQSRDGGNPFAEPSELDNPFQDPAVIQHRPSRQYATLDVYNPFETREPPPAYEPPAPAPLPPPSAPSLQPSRKLSPTEPKNYGSYSTQASAAAATAELLKKQEELNRKAEELDRRERELQHAALGGTATRQNNWPPLPSFCPVQPCFFQDISMEIPQEFQKTVSTMYYLWMCSTLALLLNFLACLASFCVETNNGAGFGLSILWVLLFTPCSFVCWYRPMYKAFRSDSSFNFFVFFFIFFVQDVLFVLQAIGIPGWGFSGWISALVVPKGNTAVSVLMLLVALLFTGIAVLGIVMLKRIHSLYRRTGASFQKAQQEFAAGVFSNPAVRTAAANAAAGAAENAFRAP [SCAMP3]”, for which the “solubility change mitosis (log2)” value in data set [1] was -0.173. Besides, the results for the melting temperature in data set [2] (cell cycle stage: G1/S) and in data set [2] (cell cycle stage: mitosis) were 58.2 °C and 57.8 °C, respectively. The thermal stability score in data set [3] (setting [5]) is -1.12; in data set [3] (cell cycle stage: mitosis) it was 0.091. Moreover, the “solubility in G1/S (log2)” value in data set [4] worked out at 0.19.
Turning to “MAQTPAFDKPKVELHVHLDGSIKPETILYYGRRRGIALPANTAEGLLNVIGMDKPLTLPDFLAKFDYYMPAIAGCREAIKRIAYEFVEMKAKEGVVYVEVRYSPHLLANSKVEPIPWNQAEGDLTPDEVVALVGQGLQEGERDFGVKARSILCCMRHQPNWSPKVVELCKKYQQQTVVAIDLAGDETIPGSSLLPGHVQAYQEAVKSGIHRTVHAGEVGSAEVVKEAVDILKTERLGHGYHTLEDQALYNRLRQENMHFEICPWSSYLTGAWKPDTEHAVIRLKNDQANYSLNTDDPLIFKSTLDTDYQMTKRDMGFTEEEFKRLNINAAKSSFLPEDEKRELLDLLYKAYGMPPSASAGQNL [ADA]”, the “solubility change mitosis (log2)” value in data set [1] is -0.0197. In addition, the melting temperature in data set [2] (cell cycle stage: G1/S) was found to be 57.9 °C; in data set [2] (cell cycle stage: mitosis), 59.2 °C. Moreover, the thermal stability score in data set [3] (setting [5]) is -1.89; in data set [3] (cell cycle stage: mitosis), -1.32. Further, the “solubility in G1/S (log2)” value in data set [4] worked out at 0.319.
As for “MAQVAMSTLPVEDEESSESRMVVTFLMSALESMCKELAKSKAEVACIAVYETDVFVVGTERGRAFVNTRKDFQKDFVKYCVEEEEKAAEMHKMKSTTQANRMSVDAVEIETLRKTVEDYFCFCYGKALGKSTVVPVPYEKMLRDQSAVVVQGLPEGVAFKHPENYDLATLKWILENKAGISFIIKRPFLEPKKHVGGRVMVTDADRSILSPGGSCGPIKVKTEPTEDSGISLEMAAVTVKEESEDPDYYQYNIQAGPSETDDVDEKQPLSKPLQGSHHSSEGNEGTEMEVPAEDSTQHVPSETSEDPEVEVTIEDDDYSPPSKRPKANELPQPPVPEPANAGKRKVREFNFEKWNARITDLRKQVEELFERKYAQAIKAKGPVTIPYPLFQSHVEDLYVEGLPEGIPFRRPSTYGIPRLERILLAKERIRFVIKKHELLNSTREDLQLDKPASGVKEEWYARITKLRKMVDQLFCKKFAEALGSTEAKAVPYQKFEAHPNDLYVEGLPENIPFRSPSWYGIPRLEKIIQVGNRIKFVIKRPELLTHSTTEVTQPRTNTPVKEDWNVRITKLRKQVEEIFNLKFAQALGLTEAVKVPYPVFESNPEFLYVEGLPEGIPFRSPTWFGIPRLERIVRGSNKIKFVVKKPELVISYLPPGMASKINTKALQSPKRPRSPGSNSKVPEIEVTVEGPNNNNPQTSAVRTPTQTNGSNVPFKPRGREFSFEAWNAKITDLKQKVENLFNEKCGEALGLKQAVKVPFALFESFPEDFYVEGLPEGVPFRRPSTFGIPRLEKILRNKAKIKFIIKKPEMFETAIKESTSSKSPPRKINSSPNVNTTASGVEDLNIIQVTIPDDDNERLSKVEKARQLREQVNDLFSRKFGEAIGMGFPVKVPYRKITINPGCVVVDGMPPGVSFKAPSYLEISSMRRILDSAEFIKFTVIRPFPGLVINNQLVDQSESEGPVIQESAEPSQLEVPATEEIKETDGSSQIKQEPDPTW [GTF2I]”, in data set [1], the “solubility change mitosis (log2)” value turned out to be 0.0472. In addition, the melting temperature in data set [2] (cell cycle stage: G1/S) stood at 45.4 °C; in data set [2] (cell cycle stage: mitosis) it was 48.5 °C. For the same sequence, the thermal stability score in data set [3] (setting [5]) stood at 6.54; in data set [3] (cell cycle stage: mitosis), 16.3. Also, in data set [4], the “solubility in G1/S (log2)” value amounted to 0.0586.
For “MARAAALLPSRSPPTPLLWPLLLLLLLETGAQDVRVQVLPEVRGQLGGTVELPCHLLPPVPGLYISLVTWQRPDAPANHQNVAAFHPKMGPSFPSPKPGSERLSFVSAKQSTGQDTEAELQDATLALHGLTVEDEGNYTCEFATFPKGSVRGMTWLRVIAKPKNQAEAQKVTFSQDPTTVALCISKEGRPPARISWLSSLDWEAKETQVSGTLAGTVTVTSRFTLVPSGRADGVTVTCKVEHESFEEPALIPVTLSVRYPPEVSISGYDDNWYLGRTDATLSCDVRSNPEPTGYDWSTTSGTFPTSAVAQGSQLVIHAVDSLFNTTFVCTVTNAVGMGRAEQVIFVRETPNTAGAGATGGIIGGIIAAIIATAVAATGILICRQQRKEQTLQGAEEDEDLEGPPSYKPPTPKAKLEAQEMPSQLFTLGASEHSPLKTPYFDAGASCTEQEMPRYHELPTLEERSGPLHPGATSLGSPIPVPPGPPAVEDVSLDLEDEEGEEEEEYLDKINPIYDALSYSSPSDSYQGKGFVMSRAMYV [PVRL2]”, in data set [1], the “solubility change mitosis (log2)” value was 0.0111. In addition, the figures for the melting temperature in data set [2] (cell cycle stage: G1/S) and in data set [2] (cell cycle stage: mitosis) were 56.9 °C and 55.4 °C, respectively. Further, the figures for the thermal stability score in data set [3] (setting [5]) and in data set [3] (cell cycle stage: mitosis) were -2.1 and -3.87, respectively. Besides, the “solubility in G1/S (log2)” value in data set [4] was determined as 0.108.
Regarding “MARAMAAAWPLLLVALLVLSWPPPGTGDVVVQAPTQVPGFLGDSVTLPCYLQVPNMEVTHVSQLTWARHGESGSMAVFHQTQGPSYSESKRLEFVAARLGAELRNASLRMFGLRVEDEGNYTCLFVTFPQGSRSVDIWLRVLAKPQNTAEVQKVQLTGEPVPMARCVSTGGRPPAQITWHSDLGGMPNTSQVPGFLSGTVTVTSLWILVPSSQVDGKNVTCKVEHESFEKPQLLTVNLTVYYPPEVSISGYDNNWYLGQNEATLTCDARSNPEPTGYNWSTTMGPLPPFAVAQGAQLLIRPVDKPINTTLICNVTNALGARQAELTVQVKEGPPSEHSGISRNAIIFLVLGILVFLILLGIGIYFYWSKCSREVLWHCHLCPSSTEHASASANGHVSYSAVSRENSSSQDPQTEGTR [PVR]”, the “solubility change mitosis (log2)” value in data set [1] worked out at 0.164. The melting temperature in data set [2] (cell cycle stage: G1/S) and in data set [2] (cell cycle stage: mitosis) was 55 °C each time. For the same sequence, the thermal stability score in data set [3] (setting [5]) was -1.4; in data set [3] (cell cycle stage: mitosis), -2.91. The “solubility in G1/S (log2)” value in data set [4] amounted to 0.109.
